Where two headings read alike, the source gives them in different places.
T1: M.HhaI methyltransferase (UniProt P05102 1-327)
T1 sequence: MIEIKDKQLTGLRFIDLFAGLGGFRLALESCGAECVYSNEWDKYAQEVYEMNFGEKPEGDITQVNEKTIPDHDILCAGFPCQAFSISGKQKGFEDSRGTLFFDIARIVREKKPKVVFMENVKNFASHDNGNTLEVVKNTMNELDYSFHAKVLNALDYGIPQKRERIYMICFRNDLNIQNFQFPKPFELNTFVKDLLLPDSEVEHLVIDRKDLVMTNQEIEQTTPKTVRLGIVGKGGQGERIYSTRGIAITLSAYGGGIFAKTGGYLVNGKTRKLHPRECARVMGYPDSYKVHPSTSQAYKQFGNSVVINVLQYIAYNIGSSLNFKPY


Legend:
[1] = biological target: T1, M.HhaI methyltransferase; experiment: electrochemical E-DNA sensor
[2] = biological target: T1, M.HhaI methyltransferase; experiment: electrochemical E-DNA sensor; remark: listed apart in the source

Row | Binder | binding result [1] | binding result [2]
1 | AAGACGAGCGCATGTTTATGCGCTC (structured_DNA, 5' HS-(CH2)6 thiol; internal T16 C5-linked methylene blue) [M.HhaI probe] | binds | 
2 | CGGGCTATATAAGGGGCGTTTTCTTATATAG (structured_DNA, 5' HS-(CH2)6 thiol; internal T10 C5-linked methylene blue) [TATA probe] |  | no binding
